Values belong to the binder of their own block, whether it stands above or below them.
Legend:
[1] = biological target: T1, Robo1 IG5-2ドメイン(B5209B抗体が認識するイムノグロブリン様ドメインの5番目) (Homo sapiens (Human), UniProt Q9Y6N7 455-543); assay: co-crystal structure of scFv and IG5-2
T1 construct: Antigen fragment of Robo1 used in ITC and in the co-crystal structure
T1 sequence: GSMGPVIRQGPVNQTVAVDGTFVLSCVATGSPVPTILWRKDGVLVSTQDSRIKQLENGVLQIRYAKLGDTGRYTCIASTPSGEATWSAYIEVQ

[2] = biological target: T1, Robo1 …; assay: ITC with molecular dynamics interpretation
[3] = biological target: T1, Robo1 …; assay: ITC, thermodynamic parameters

binding result [1]: binds
B1: B5209B 一本鎖抗体(scFv) 野生型 (scFv)
scFv: MAEVQLVESGGGVVQPGGSLKLSCAASGFTFSTYDMSWVRQTPDKRLELVATINSNGGSTYYPDSVKGRFTSSRDNAKNILYLQMSSLKSEDTAMYYCAREALLRPPYYALDYWGQGTSVTVSSAGGGGSGGGGSGGGGSGGGGSDILDIQMTQSPASLSASVGETVTITCGASENIYGALTWYQRKQGKSPQLLIYGAINLADDKSSRFSGSGSGRQYSLKISSLHPDDVATYYCQNVLSTPFTFGSGTKLEIKAAGHHHHHH
notes: Expressed in E. coli Origami2(DE3) from pRA2; also called B5209B scFv; WT

binding result [2]: binds
B2: B5209B scFv HP103A変異体 (scFv)
scFv: QLVESGGGVVQPGGSLKLSCAASGFTFSTYDMSWVRQTPDKRLELVATINSNGGSTYYPDSVKGRFTSSRDNAKNILYLQMSSLKSEDTAMYYCAREALLRPAYYALDYWGQGTSVTVSSGGGGSGGGGSGGGGSGGGGSDIQMTQSPASLSASVGETVTITCGASENIYGALTWYQRKQGKSPQLLIYGAINLADDKSSRFSGSGSGRQYSLKISSLHPDDVATYYCQNVLSTPFTFGSGTKLEIKHHHHHH

binding result [3]: binds
B3: B5209B scFv LY30A変異体 (scFv)
scFv: QLVESGGGVVQPGGSLKLSCAASGFTFSTYDMSWVRQTPDKRLELVATINSNGGSTYYPDSVKGRFTSSRDNAKNILYLQMSSLKSEDTAMYYCAREALLRPPYYALDYWGQGTSVTVSSGGGGSGGGGSGGGGSGGGGSDIQMTQSPASLSASVGETVTITCGASENIAGALTWYQRKQGKSPQLLIYGAINLADDKSSRFSGSGSGRQYSLKISSLHPDDVATYYCQNVLSTPFTFGSGTKLEIKHHHHHH

Reference: patent JP2015097496A (dated 2015)
